The target of this assay is CTF2 mutant MUT9 (3xFLAG-tagged) (chicken) (UniProt Q90762). The assay is described as follows: co-IP.
UniProt Q90762, sequence (Q90762 637-790, change not shown): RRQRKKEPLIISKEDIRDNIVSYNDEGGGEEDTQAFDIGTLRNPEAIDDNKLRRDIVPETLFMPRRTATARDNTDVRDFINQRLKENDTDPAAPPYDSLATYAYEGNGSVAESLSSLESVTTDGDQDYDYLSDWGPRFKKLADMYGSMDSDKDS

“β-catenin (endogenous, LMH cells) (natural protein)” gave a percent inhibition of β-catenin co-immunoprecipitation against wild-type CTF2 of 87.5%.
